From US20110301335A1 (published 2011)
Changes are numbered by the printed parent chain.

T1: human TNFR1 (R&D systems, cat no. 636-R1/CF) (human, UniProt P19438 30-211, limits assumed, biotinylated with EZ-Link NHS-LC-LC-biotin where coated on streptavidin chips; amine-coupled in the Table 2 experiment)
T1 construct: bought soluble recombinant protein; also called hTNFR1; p55
T1 sequence (looked up): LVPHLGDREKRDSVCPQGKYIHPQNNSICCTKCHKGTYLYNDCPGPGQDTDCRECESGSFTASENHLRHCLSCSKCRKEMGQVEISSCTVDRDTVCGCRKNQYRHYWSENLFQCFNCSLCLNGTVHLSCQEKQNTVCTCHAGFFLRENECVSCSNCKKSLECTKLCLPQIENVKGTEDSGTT

B1: DOM1h-574-7 (other)
VH: EVQLLESGGGLVQPGGSLRLSCAASGFTFVKYSMGWVRQAPGKGLEWVSQISNTGGHTYYADSVKGRFTISRDNSKNTLYLQMNSLRAEDTAVYYCAIYTGRWEPFDYWGQGTLVTVSS
notes: anti-TNFR1 dAb (VH) from error-prone test maturation; expressed from pDOM5 (myc tag not included here)
B2: DOM1h-574-10 (other)
VH: B1 VH with V30G, G44D
notes: as for B1

Tests used:
[1] = biological target: human TNFR1 (R&D systems, cat no. 636-R1/CF) (human) (UniProt P19438); experiment: BIAcore sequential injection on biotinylated human TNFR1; competitor DOM1h-574-16
[2] = biological target: T1, human TNFR1 (R&D systems, cat no. …); experiment: BIAcore screening of supernatants

Molecule | percent less binding after DOM1h-574-16 [1] [%] | binding result [2]
mAb Clone 4.12 (Invitrogen, cat. no. Zymed 33-0100) (antibody) | 20 | –
B1 | – | binds
B2 | – | binds
